Assay results published in patent US20120141463A1.

Target: membrane anchored IgE on transfected 293 cells (human) (UniProt P01854)
Experiment: cell-based or functional assay

Sequence of membrane anchored IgE on transfected 293 cells (human) (P01854 whole entry): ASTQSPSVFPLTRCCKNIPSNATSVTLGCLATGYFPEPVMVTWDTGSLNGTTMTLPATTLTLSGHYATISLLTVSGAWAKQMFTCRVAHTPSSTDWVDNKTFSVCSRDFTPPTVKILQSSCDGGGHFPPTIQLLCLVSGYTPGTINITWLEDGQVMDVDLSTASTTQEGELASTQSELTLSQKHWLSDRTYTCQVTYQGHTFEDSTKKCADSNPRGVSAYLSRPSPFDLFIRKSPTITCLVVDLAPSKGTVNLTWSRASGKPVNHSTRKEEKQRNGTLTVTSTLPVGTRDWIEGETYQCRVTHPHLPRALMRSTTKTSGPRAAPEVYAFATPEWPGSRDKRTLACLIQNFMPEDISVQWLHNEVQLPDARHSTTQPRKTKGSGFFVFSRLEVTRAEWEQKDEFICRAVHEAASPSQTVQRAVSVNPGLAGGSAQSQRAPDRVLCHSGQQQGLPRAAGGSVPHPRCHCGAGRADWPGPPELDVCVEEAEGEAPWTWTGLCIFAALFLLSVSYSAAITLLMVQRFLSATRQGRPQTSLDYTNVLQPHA

B1: D5 antibody (antibody, V domains shown)
VH: EVQLLESGGGLVQPGGSLRLSCAASGFTFSKYHMVWVRQAPGKGLEWVSSIGPSGGNTYYADSVKGRFTISRDNSKNTLYLQMNSLRAEDTATYYCARALGATFDYWGQGTLVTVSS
VL: DIQMTQSPLSLPVTLGQPASISCKSSQSLVYRDGITYLSWFQQRPGQSPRRLIYKVSNRDSGVPDRFSGSGSDSNFTLKISSVEAEDVGLYFCMQGSHWPFTFGPGTKVDIKR
- ADCC activity (% cytotoxicity, LDH release, PBMC effectors): < 70%
